Assay [1] concerns the target Kluyveromyces lactis β-galactosidase mutant R116C/T270C/G818C (Kluyveromyces lactis) (UniProt P00723). The experiment in a line: AUC; sedimentation velocity, 0.2 mg/mL enzyme, 50 mM Tris-HCl, 150 mM NaCl, pH 7.4, 48 k rpm, c(s) distribution (SEDFIT); self-association, shares of monomer, dimer, trimer and tetramer.
Assay [2] has the same target. In words: AUC; sedimentation velocity, 0.1 mg/mL enzyme, 50 mM Tris-HCl, 150 mM NaCl, pH 7.4, 48 k rpm, c(s) distribution (SEDFIT); self-association.
In assay [3] the target is Kluyveromyces lactis β-galactosidase mutant R116C/T270C (Kluyveromyces lactis) (UniProt P00723). In words: AUC; sedimentation velocity, 0.2 mg/mL enzyme, 50 mM Tris-HCl, 150 mM NaCl, pH 7.4, 48 k rpm, c(s) distribution (SEDFIT); self-association, shares of monomer, dimer, trimer and tetramer.
The target is the same in assay [4]. The experiment in a line: AUC; sedimentation velocity, 0.1 mg/mL enzyme, 50 mM Tris-HCl, 150 mM NaCl, pH 7.4, 48 k rpm, c(s) distribution (SEDFIT); self-association.

Consider “Kluyveromyces lactis β-galactosidase mutant R116C/T270C/G818C (from UniProt P00723 2-1025) (enzyme)”, for which, in assay [1], the percent of the protein as dimer was 57.2%, the percent of the protein as monomer was found to be 7.3%, the percent of the protein as tetramer came to 23% and the percent of the protein as trimer stood at 12.6%. Moreover, the increase in monomeric forms at 0.1 mg/mL against 0.2 mg/mL in assay [2] came to 2.1%.
Take “Kluyveromyces lactis β-galactosidase mutant R116C/T270C (from UniProt P00723 2-1025) (enzyme)”: in assay [3], the percent of the protein as dimer came to 20.9%, the percent of the protein as monomer was determined as 21.9%, the percent of the protein as tetramer amounted to 49.3% and the percent of the protein as trimer amounted to 7.9%. Also, in assay [4], the increase in monomeric forms at 0.1 mg/mL against 0.2 mg/mL came to 0.8%.

The values are drawn from publication PMC5374532, “Rational mutagenesis by engineering disulphide bonds improves Kluyveromyces lactis beta-galactosidase for high-temperature industrial applications” (Scientific Reports, 2017).
